Laboratory results from patent EP4671274A1.

Target: recombinant His-tagged canine interleukin-13 (cIL-13) (canine) (UniProt Q9N0W9)
Experiment: cell-based or functional assay

recombinant His-tagged canine interleukin-13 (cIL-13) (canine), sequence (Q9N0W9 other isoform, or with tags, fused parts or gaps): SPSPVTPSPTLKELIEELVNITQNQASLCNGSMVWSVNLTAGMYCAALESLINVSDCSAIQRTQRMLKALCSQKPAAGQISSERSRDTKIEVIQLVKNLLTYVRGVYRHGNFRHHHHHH

B1: mouse monoclonal antibody 32A10-#20 (antibody, from another filing, V domains shown)
VH: EVQLQQSGPELVKPGASVKVSCKTSGYSFTDYPIYWVRQSHGESLEWIGYIDPYNGGTTYNQNFKDKATLTVDKSSSTAFMHLNSLTSEDSAVYFCATAVVATDVMENWGQGTSVTVSS
VL: DIVLTQSQKFMSTSVGDRVSITCKASQNVRNAVAWFQQKPGQSPKALIYLASNRYTGVPDHFTGSGSGTDFTLTISNVQSEDLADYFCLQHWNYPLTFGAGTKLELK
- IL-13-dependent TF-1 cell proliferation inhibition IC50: 2.9 to 4.2 nM
- Inhibitory Activity on TF-1 Cell Proliferation, IC50: 3.97 nM
